Test results taken from patent publication US20020032166A1, “Biocompatible cationic detergents and uses therefor” (University Technology Corporation, priority 1992, published 2002).
Where “and” joins values, the source holds several entries; their conditions need not be identical. Equal entries are not always repeated. Where two headings read alike, the source gives them in different places.

How the values were obtained:
[1] = Partitioning of anionic compounds with arginine esters; assay type: physicochemical
Procedure: Stock solutions of the arginine esters were made by first dissolving the powder in 0.1 N HCl to give a 10 mM solution and then raising the pH to a value between 5 and 6. The pH should not be raised above 8.
Anionic compounds were dissolved in pH 5.5 buffer (10 mM bis-tris propane, 10 mM CaCl2, 10 mM KCl). Appropriate amounts of the stock solution of arginine ester (see above), the anionic compound and buffer were mixed so that the final concentration of the anionic material was 1 mg/mL. An equal volume of organic solvent was added, and the samples were vortexed for 15 seconds on high speed. Layers were separated by centrifugation at 4000 rpm for 5 minutes. Concentrations of the anionic material in the aqueous and organic layers were determined by UV spectroscopy on a Beckman DU-64 series spectrophotometer.

[2] = Apparent water/1-octanol partition coefficient of SDS hydrophobic ion pair complexes
Description: The relative solubilities in two phases is given in terms of an apparent partition coefficient. The apparent partition coefficient is defined as the ratio of the equilibrium concentration in an organic phase to that in an aqueous phase. The actual value of the apparent partition coefficient, P, is dependent on the two solvent systems employed. In all cases herein described, the organic phase is 1-octanol and the aqueous phase is water alone or with a minimal amount of HCl added.
(§3) Apparent partition coefficients were measured by dissolving a peptide in 1.25 ml of an aqueous solution. Before SDS addition, the pH was measured on a Beckman pH meter. Upon addition of an SDS solution, the solutions turned cloudy and a precipitate formed immediately. An equal volume of 1-octanol was added and the mixtures agitated, and then left undisturbed for several hours. Prior to analysis, the tubes were spun for 10 minutes at 4000 g. Each layer was removed and the absorbance measured on a Beckman DU-64 UV-visible spectrophotometer using 1 cm quartz cells. All apparent partition coefficients were corrected for changes in pH with differing SDS concentrations.
Results are described as logarithms of the apparent partition coefficient. A log P value of 0 means that the compound is equally soluble in water and the organic phase.

COS-7 cells [3] = test: Cytotoxicity, MTS cell proliferation assay; assay type: cell-based, green monkey; settings: for IC50: Chlorocebus sabaeus, 2-6 h exposure, 72 h growth, read-out: IC50 (half-maximal growth inhibition)
Description: (§1) The cytotoxicity of arginine dodecyl ester was investigated in cell culture with two types of cells (see Cory et al., Cancer Commun., 3, 207-212 (1991)): CCRF-CEM cells, a human T-cell leukemia cell line that grows in suspension (obtained from the American Type Culture Collection, ATCC); and a green monkey kidney cell line (COS-7) that grows in monolayers (also obtained from ATCC). For comparison, the cells were also exposed to […] bromide (DTAB) (Sigma).
(§2) Cells were plated into 96-well plates (Corning) in a total of 200 μL Dulbecco's modified minimal essential medium for COS-7 cells, RPMI 1640 for CEM cells, supplemented with penicillin G (50 U/ml), streptomycin sulfate (50 μg/ml), and 10% fetal calf serum, at 10,000 cells/well for COS-7 amd 50,000 cells/well for CEM cells. The plates were incubated at 37° C. for 24 hours after plating. The cells were then exposed to various concentrations of the detergents. Each detergent concentration was used in 8 replicate wells. After 2-6 hours, media/detergent solutions were aspirated, and the wells were washed twice with PBS. For CEM suspension cells, centrifugation of the suspension at 1000×g for 5 min between each wash was required. After washing, 200 μL of fresh medium were added, and the cells were incubated for 72 hours. After 72 hours, cell proliferation was determined using the Promega CellTiter 96 AQueous Non-Radioactive Cell Proliferation Assay.
CC-CHOL was tested for cytotoxicity as described in Example 38 using COS-7 and JEG-3 cells. JEG-3 cells are a human choriocarcinoma cell line available from ATCC. The culture medium was Eagle's minimum essential medium containing 10% serum.

CCRF-CEM cells = test: Cytotoxicity, MTS cell proliferation assay; assay type: cell-based, human; settings: for IC50: Homo sapiens, 2-6 h exposure, 72 h growth, read-out: IC50 (half-maximal growth inhibition)
Description: as §1, §2

[4] = Surface tension, critical micelle concentration; assay type: physicochemical; settings: in 0.1 N HCl
Procedure: Surface tension was measured using a Fisher surface tensiometer. Briefly, a platinum iridium ring with a diameter of 6 cm was lowered into the appropriate dilution of detergent in 0.1 N HCl. Surface tension was read at the point where the force on the ring upwards caused the ring to break contact with the liquid surface.

COS-7 cells [5] = test: Transfection of pRSV400luc plasmid, luciferase activity; assay type: cell-based, green monkey; settings: no liposomes or helper lipids
Description: The plasmid used was pRSV400luc. It was obtained from Dr. David Gordon, Div. Endocrinology, University of Colorado School of Medicine, Denver, Colo. It was propagated in Escherichia coli strain DH5a (ATCC), isolated by a standard alkaline-SDS lysis procedure, and purified twice by isopycnic centrifugation on CsCl gradients (Sambrook et al., Molecular Cloning: A Laboratory Manual (Cold Spring Harbor Laboratory) (1989). COS-7 cells at approximately 50,000 cells per 60 mm diameter plate (Falcon) were used for transfection. Control experiments were done with Lipofectamine (GIBCO/Life Technologies, Gaithersburg, Md.).
In 200 total μL of serum-free medium, plasmid (20 μg) and Lipofectamine or arginine dodecyl ester were mixed and allowed to interact for 45 minutes. The volume was then brought to 1 mL with serum-free medium. Plates with cells were washed with serum-free medium. […]
After allowing cells to grow and express gene product for 36-50 hours, the cells were harvested. […] Intensity of luminescence should be proportional to the amount of expressed luciferase and, therefore, the efficiency of transfection. “Background” is the reading from just the substrate mixture on the luminometer before addition of cell lysate. […] Any reading over 100 units is considered significant.

[6] = SDS-insulin complex
Procedure: as §3

[7] = Thermal denaturation / melting point followed at 222 nm (CD, absorbance); assay type: physicochemical
Procedure: Both circular dichroism (CD) signal and light scattering (as measured by changes in absorbance) were measured at 222 nm and the melting point determined by an inflection point in the measured scan.

[8] = Apparent solubility of HIP complexes in organic solvents
[9] = aqueous solution; cited from earlier work
[10] = Solubility of arginine octyl ester powder; assay type: physicochemical

Compound: hGH: human growth hormone; precipitate with SDS at pH 2
- solubility in 1-octanol (pH 2): not found to be soluble
- aqueous solubility on addition of SDS (pH 7.8): not affected

Compound: bovine serum albumin: bovine serum albumin, anionic test protein
- partitioning into octanol layer ([1]; arginine dodecyl ester added, octanol): none would partition into octanol layer

Compound: NC(=O)CC[C@@H]1NC(=O)[C@H](Cc2ccccc2)NC(=O)[C@H](Cc2ccc(O)cc2)NC(=O)[C@@H](N)CSSC[C@@H](C(=O)N2CCC[C@H]2C(=O)N[C@@H](CCCN=C(N)N)C(=O)NCC(N)=O)NC(=O)[C@H](CC(N)=O)NC1=O [AVP, 8-Arg-vasopressin]
- increase of apparent partition coefficient on SDS addition ([2]; 1-octanol/water, stoichiometric SDS): nearly four orders of magnitude

Compound: CCCCCCCCCCCCCC[N+](C)(C)C [DTAB, tetradecyltrimethylammonium bromide, reference compound]
- IC50 (COS-7 cells [3]): 80 µM
- IC50 (CCRF-CEM cells): 20 µM

Compound: Gly-Phe-NH2
- partitioning into 1-octanol with SDS ([2]; pH 7 / neutral pH): readily partitions into 1-octanol

Compound: CCCCCCCCCCCCOC(=O)[C@@H](N)CCCNC(=N)N [arginine dodecyl ester]
- toxicity relative to DTAB (COS-7 cells [3]): approximately two-fold less toxicity
- IC50 (COS-7 cells [3]): 175 µM
- toxicity relative to DTAB (CCRF-CEM cells): seven-fold less toxicity
- IC50 (CCRF-CEM cells): 150 µM
- critical micelle concentration (cmc) [4]: approximately 0.3 mM and ~0.10 mg/ml
- transfection of plasmid (COS-7 cells [5]): promoted transection of the plasmid in a concentration and time dependent manner

Compound: Gly-Phe
- partitioning into 1-octanol with SDS ([2]; pH 3): mirrors the marked increase seen for Gly-Phe-NH2
- partitioning into 1-octanol with SDS ([2]; pH 7 / neutral pH): little enhancement of the partition coefficient

Compound: insulin: insulin, a hydrophilic protein; in Table 1 and in 1-octanol present as SDS complex
- Log P ([6]; organic solvent 1-Chlorooctane): not detectable
- Log P ([6]; organic solvent 1-octanol): ≧ 1.2
- Log P ([6]; organic solvent CCl4): not detectable
- Log P ([6]; organic solvent CH2Cl2): not detectable
- Log P ([6]; organic solvent Dimethoxyethane): not detectable
- Log P ([6]; organic solvent Ether): not detectable
- Log P ([6]; organic solvent Hexane): not detectable
- Log P ([6]; organic solvent Mineral Oil): not detectable
- Tm in 1-octanol above that observed in water ([7]; 1-octanol vs water): more than 30 degrees
- Apparent Sol. ([8]; SDS-insulin complex in 1-Chlorooctane): insoluble
- Apparent Sol. ([8]; SDS-insulin complex in 1-octanol): ≧ 1.0 mg/ml
- Apparent Sol. ([8]; SDS-insulin complex in CCl4): insoluble
- Apparent Sol. ([8]; SDS-insulin complex in CH2Cl2): insoluble
- Apparent Sol. ([8]; SDS-insulin complex in DMF): ≧ 1.0 mg/ml
- Apparent Sol. ([8]; SDS-insulin complex in Ethanol): ≧ 1.0 mg/ml
- Apparent Sol. ([8]; SDS-insulin complex in Ether): insoluble
- Apparent Sol. ([8]; SDS-insulin complex in Ethyl acetate): insoluble
- Apparent Sol. ([8]; SDS-insulin complex in Hexane): insoluble
- Apparent Sol. ([8]; SDS-insulin complex in Methanol): ≧ 1.0 mg/ml
- Apparent Sol. ([8]; SDS-insulin complex in Mineral Oil): insoluble
- Apparent Sol. ([8]; SDS-insulin complex in NMP): ≧ 1.0 mg/ml
- Apparent Sol. ([8]; SDS-insulin complex in PEG 400): ≧ 0.2 mg/ml
- Apparent Sol. ([8]; SDS-insulin complex in Propylene Glycol): ≧ 0.5 mg/ml
- Apparent Sol. ([8]; SDS-insulin complex in TMP): ≧ 0.2 mg/ml
- Apparent Sol. ([8]; SDS-insulin complex in Trifluoroethanol): ≧ 0.5 mg/ml
- Apparent Sol. ([8]; SDS-insulin complex in Trimethyl phosphate): ≧ 0.15 mg/ml
- Apparent Sol. ([8]; SDS-insulin complex in i-Propanol): ≧ 1.0 mg/ml
- Tm of thermal denaturation [9]: about 65 °C

Compound: insulin-SDS complex: hydrophobic ion pair complex of insulin with sodium dodecyl sulfate
- structure after prolonged heating ([7]; 1-octanol, 70° C. for more than 1 hour): appears to maintain its native structure
- melting point in 1-octanol ([7]; SDS:insulin molar ratio 6:1, 200 ug/ml): about 116 °C
- melting point in 1-octanol, CD scan at 222 nm ([7]; SDS:insulin molar ratio 9:1 (FIG. 10)): 106 °C
- melting point in 1-octanol, absorbance scan at 222 nm ([7]; SDS:insulin molar ratio 9:1 (FIG. 11)): 106 °C

Compound: Cc1ccc(S(=O)(=O)[O-])cc1.[Na+] [p-toluenesulfonic acid, sodium salt]
- log p ([1]; ester C8 (arginine octyl ester), solvent octanol, pH 5.5 buffer): -0.353
- log p ([1]; ester C8, solvent isooctane, pH 5.5 buffer): -2.2
- log p ([1]; ester C12 (arginine dodecyl ester), solvent octanol, pH 5.5 buffer): -0.336
- log p ([1]; ester none, solvent isooctane, pH 5.5 buffer): -2.7
- log p ([1]; ester none, solvent octanol, pH 5.5 buffer): -1.62

Compound: Nc1ncnc2c1ncn2[C@@H]1O[C@H](COP(=O)(O)OP(=O)(O)OP(=O)(O)O)[C@@H](O)[C@H]1O [adenosine triphosphate]
- log p ([1]; octanol/pH 5.5 buffer, pH 5.5, ester C12, detergent:anionic compound 1:1, solvent octanol, read-out: log p): -1.48
- log p ([1]; octanol/pH 5.5 buffer, pH 5.5, ester C12, detergent:anionic compound 3:1, solvent octanol, read-out: log p): 0.022
- log p ([1]; octanol/pH 5.5 buffer, pH 5.5, ester none, solvent octanol, pH 5.5 buffer, read-out: log p): -3.23

Compound: CCCCCCCCOC(=O)[C@@H](N)CCCNC(=N)N [arginine octyl ester]
- solubility in HCl ([10]; HCl): would only dissolve in 0.1 N or stronger HCl
- solubility in organics ([10]; alcohols, hydrocarbons, aromatics, DMF, pyridine): insoluble
- solubility in water ([10]; water): insoluble
- critical micelle concentration (cmc) [4]: about 6 mM and ~2.2 mg/ml
